Measured values reported in paper PMC3922351 (2007).
Blank lines part the entries; values can stand above or below the molecule they belong to.

Legend:
FGFR1 (Homo sapiens) [1] = biological target: FGFR1 (Homo sapiens) (UniProt P11362); assay: surface plasmon resonance; conditions: cited from earlier work
FGFR1 (Homo sapiens) [2] = biological target: FGFR1 (Homo sapiens) (UniProt P11362); assay: surface plasmon resonance; conditions: cited from earlier work; remark: listed apart in the source
FGF2 (Homo sapiens) [3] = biological target: FGF2 (Homo sapiens) (UniProt P09038); assay: SPR; conditions: cited from earlier work
FGF2 (Homo sapiens) [4] = biological target: FGF2 (Homo sapiens) (UniProt P09038); assay: SPR; conditions: cited from earlier work; remark: listed apart in the source
[5] = biological target: low density lipoprotein receptor-related protein (LRP) (UniProt Q07954)

Chain of FGF2 (Homo sapiens) (P09038 143-288): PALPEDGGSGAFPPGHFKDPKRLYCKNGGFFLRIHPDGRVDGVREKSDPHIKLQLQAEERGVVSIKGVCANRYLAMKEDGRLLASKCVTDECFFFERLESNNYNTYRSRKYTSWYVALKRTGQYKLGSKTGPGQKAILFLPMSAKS
Chain of FGFR1 (Homo sapiens) (P11362 22-822): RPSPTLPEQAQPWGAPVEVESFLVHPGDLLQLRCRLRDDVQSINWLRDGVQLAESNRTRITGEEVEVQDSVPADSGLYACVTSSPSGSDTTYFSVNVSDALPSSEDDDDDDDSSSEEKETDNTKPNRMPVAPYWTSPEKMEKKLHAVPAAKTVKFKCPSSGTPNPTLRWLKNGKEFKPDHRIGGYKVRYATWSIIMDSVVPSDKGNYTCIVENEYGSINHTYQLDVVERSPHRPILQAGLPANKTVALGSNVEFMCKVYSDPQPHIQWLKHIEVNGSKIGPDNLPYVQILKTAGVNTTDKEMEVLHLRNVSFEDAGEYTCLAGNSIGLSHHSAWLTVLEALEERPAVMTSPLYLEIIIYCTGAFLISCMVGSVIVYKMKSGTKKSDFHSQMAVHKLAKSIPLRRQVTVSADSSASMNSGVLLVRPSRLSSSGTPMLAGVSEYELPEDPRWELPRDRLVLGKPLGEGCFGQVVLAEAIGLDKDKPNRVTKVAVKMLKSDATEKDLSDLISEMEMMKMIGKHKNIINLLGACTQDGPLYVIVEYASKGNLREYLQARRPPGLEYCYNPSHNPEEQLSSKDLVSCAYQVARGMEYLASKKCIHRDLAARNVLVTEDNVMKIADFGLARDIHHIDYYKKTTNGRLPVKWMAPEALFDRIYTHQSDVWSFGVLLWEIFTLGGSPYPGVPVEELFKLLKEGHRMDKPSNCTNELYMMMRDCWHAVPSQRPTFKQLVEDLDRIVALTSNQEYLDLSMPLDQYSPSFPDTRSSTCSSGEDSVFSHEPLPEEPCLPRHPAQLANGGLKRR

Molecule: FGF2 (from UniProt P09038)
Kd (FGFR1 (Homo sapiens) [1]): 2.7 nM
Kd (FGFR1 (Homo sapiens) [2]): 62 nM

Molecule: FGFR1 (from UniProt P11362)
Kd (FGF2 (Homo sapiens) [3]): 2.7 nM
Kd (FGF2 (Homo sapiens) [4]): 62 nM

Kd [5]: ~1.06 nM
B1: pro-heparanase-1 (protein)
chain: QDVVDLDFFTQEPLHLVSPSFLSVTIDANLATDPRFLILLGSPKLRTLARGLSPAYLRFGGTKTDFLIFDPKKESTFEERSYWQSQVNQDICKYGSIPPDVEEKLRLEWPYQEQLLLREHYQKKFKNSTYSRSSVDVLYTFANCSGLDLIFGLNALLRTADLQWNSSNAQLLLDYCSSKGYNISWELGNEPNSFLKKADIFINGSQLGEDFIQLHKLLRKSTFKNAKLYGPDVGQPRRKTAKMLKSFLKAGGEVIDSVTWHHYYLNGRTATKEDFLNPDVLDIFISSVQKVFQVVESTRPGKKVWLGETSSAYGGGAPLLSDTFAAGFMWLDKLGLSARMGIEVVMRQVFFGAGNYHLVDENFDPLPDYWLSLLFKKLVGTKVLMASVQGSKRRKLRVYLHCTNTDNPRYKEGDLTLYAINLHNVTKYLRLPYPFSNKQVDKYLLRPLGPHGLLSKSVQLNGLTLKMVDDQTLPPLMEKPLRPGSSLGLPAFSYSFFVIRNAKVAACI

Kd [5]: ~0.05 nM
B2: pro-heparanase-1 (protein)
chain: B1 chain
modifications: complex of LRP with heparan sulphate proteoglycans (HSPG)
